Experimental data from patent US8410045B2, “Camptothecin-peptide conjugates and pharmaceutical compositions containing the same” (Drais Pharmaceuticals, Inc., priority 2006, dated 2013).
pIC50: −log10 of the molar value. Where two headings read alike, the source gives them in different places. Where a SMILES comes first, the peptide text is derived from it. The star is where a group is joined. X1 = CCc1c2c(nc3ccc(OC(=O)CCCCCN4C(=O)CC(*)C4=O)cc13)-c1cc3c(c(=O)n1C2)COC(=O)[C@]3(O)CC

Assays:
[1] = Toxicity study in the beagle dog following intravenous infusion
Experimental: Adult female and male beagle dogs were individually housed with free access to tap water. A pellet diet was distributed daily.
Dogs (1 dog for each drug and dose) were infused intravenously through the cephalic or saphenous vein. These intravenous infusions were made using a single-use catheter (Intraflon®) and a plastic syringe connected to a syringe pump. During the injection, the animals were restrained in a hammock.
Conjugates were dissolved in water for injection (10% of final volume) and diluted with 0.9% NaCl to their final concentration. The volume administered to each animal was adjusted according to body weight.
Clinical signs, hematological and intestinal toxicities were monitored during a period of 15 days after infusion. Each animal was checked at least twice a day for mortality or signs of morbidity.
The body weight of each animal was recorded on the day −1, 4, 10 and 13.
Peripheral blood samples were taken into EDTA tubes for the determination of following parameters on days −1, 5, 11 and 14: erythrocytes, hemoglobin, mean cell volume, packed cell volume, mean cell hemoglobin concentration, mean cell hemoglobin, thrombocytes, leucocytes, differential white cell count with cell morphology.

[2] = Stability of conjugates in citrated plasma at 37° C. (half life time, HPLC fluorescence); type: in vitro ADME; details: dog
Experimental: (§1) The stability of the conjugates was tested in citrated plasma (10% (v/v) sodium citrate buffer, 0.106M) from different species (see Table 1 below). The conjugates at 2.55 μM were incubated at 37° C. in plasma. Samples were analysed using the HPLC fluorescence method described below (see chromatographic equipment and conditions) following TFA/acetonitrile extraction and the amount of free camptothecin, analogs or derivatives thereof (e.g. SN38) released by the conjugates was measured.
(§2) Chromatographic equipment and conditions: 150 μL of each sample were placed in 1.5 mL micro-centrifuge tubes. 450 μL of 5% (v/v) TFA in H2O was added to each tube and the mixture was vortexed for 5 seconds. Samples were then centrifuged at 16000 g, 3 minutes at +4° C. 100 μL of supernatant were placed in 1.5 mL micro-centrifuge tubes. Methanol (100 μL) was then immediately added and vortexed for 5 seconds. Samples were then centrifuged at 16000 g, 3 minutes at room temperature. 150 μL of supernatant were recovered for HPLC analysis. Conjugates, metabolites and camptothecin derivative (i.e. SN38) were separated by high-performance liquid chromatography (HPLC; Agilent 1100 series equipped with a fluorescence detector) using a 4.6×100 mm ([…] particle size) Luna C18(2) column (Phenomenex ref. 00D-4251-E0, Le Pecq, France). The aqueous component of the mobile phase (A) was 0.1% (v/v) TFA in water. The organic modifier (B) was acetonitrile containing 0.1% (v/v) TFA. For the conjugate and its metabolites an elution gradient increasing linearly the proportion of B from 15 to 37% in 2 min, from 37 to 47% in 6 min, followed by 2 min at 90% was applied with a constant flow rate of 1.2 mL/min. The proportion of B was then returned to the initial condition for 3.0 min.
(§3) The half life time of conjugate corresponds to the time necessary to have 50% by mole of free camptothecin, analogs or derivatives thereof released by the conjugates of the invention. In human plasma, the half life time of conjugate DPV1047-linker #1-SN38 (less than 5 mins) was shorter than that of conjugate DPV1047-linker #2-SN38 (6-7 mins), which, in turn, was shorter than that of conjugate DPV1047-linker #3-SN38 (12 mins).
(§4) As in Example II, the stability of these conjugates was tested in either human or dog plasma. Following incubation at 37° C., samples were analyzed after a TFA acetonitrile extraction by the HPLC fluorescence method described in Example II. The in vitro cytotoxicity (IC50) of these compounds was also evaluated.

[3] = Pharmacokinetic study in the dog (blood, HPLC fluorescence); type: in vivo; details: dog blood; non-toxic doses (DPV1047-BCH-SN38 ≦20 mg/kg, DPV1047-MIC-SN38 ≦50 mg/kg)
Experimental: Peripheral blood samples were taken at different times following infusion for pharmacokinetic analysis.
Blood samples (2.5 mL) were collected in 5 mL in trisodium citrate tubes (Sarstedt S-Monovette® 9NC) containing 2.5 mL of 5% TFA (v/v) and vortexed for 5 seconds before storage at −80° C. (for less than two weeks).
Samples were then analyzed after a TFA and acetonitrile extraction by an HPLC fluorescence method, described below. […] Whole blood samples were acidified with TFA to protect the ester link of the conjugate against hydrolysis and allow protein precipitation to improve conjugate and SN38 recovery.
Five hundred microliters of each sample were then placed in 1.5 mL micro-centrifuge tubes to and centrifuged at 16000×g 3 min at +4° C. […] Methanol (100 μL) was then immediately added and the mixture stirred vigorously (vortex) for 5 seconds. Samples were then centrifuged at 16000×g, 3 min at room temperature.
One hundred and fifty microliters of the supernatant was recovered for HPLC analysis.
DPV1047-BCH-SN38 and its metabolite SN38 were separated by high-performance liquid chromatography (HPLC Agilent 1100 with a fluorescence detector) using the following method: […]

[4] = Stability of conjugates in citrated plasma at 37° C. (half life time, HPLC fluorescence); type: in vitro ADME, human; details: human, plasma
Experimental: as §1, §2, §3, §4

[5] = as above; type: in vitro ADME; details: DPV1047-linker-SN38, 2.55 μM
Experimental: as §1, §2, §3

[6] = system: HCT 116 human epithelial colon carcinoma cells; assay: cells; type: cell-based
Experimental: (§5) Cytotoxic evaluation was performed by seeded cells for 24 h prior to the addition of the therapeutic compound. Cells were incubated for 48 h (37° C.) with different dilutions of the therapeutic compound. Cell viability was then assessed using the WST-1 assay (Roche). The results are expressed as mean cytotoxic concentrations (IC50 value or molar concentration that inhibits 50% of cell viability) that were estimated from sigmoid regression, using Graph Pad Prism 3.02 software.
HCT 116 (ATCC #: CCL-247): human epithelial colon carcinoma cells. Cells were cultured in Mc Coy's 5a medium+1.5 mM L-glutamine and 10% fetal bovine serum. Cells were plated at a density of 8000 cells/well in 96-well plates.

[7] = system: NCI-H460 human epithelial lung carcinoma cells; assay: In vitro cytotoxicity (WST-1 cell viability); type: cell-based
Experimental: as §5
NCI-H460 (ATCC#: HTB-177): human epithelial lung carcinoma cells. Cells were cultured in RPMI 1640+glutamax and 10% of fetal bovine serum. Cells were plated at a density of 10,000 cells/well in 96-well plates.

[8] = background statement; cited from earlier work
[9] = In vitro human serum stability study; type: in vitro ADME
Source text: Peptidic drug delivery systems have also been described in PCT patent application published under No WO 00/01417 filed by […] aiming to facilitate the delivery of different drugs, such as the 10-Hydroxycamptothecin. This patent application describes the use of homeobox peptide derived from the Drosophila antennapedia homoprotein (preferably a cell-penetrating peptide (CPP) named penetratin) for conjugation to a number of cytotoxic drugs, thus enhancing their delivery and/or therapeutic effect. […] Consequently the applicant has performed in vitro human serum stability studies using the conjugate described in example 29 of this patent application No WO 00/01417.

CCc1c2c(nc3ccc(OC(=O)CCCCCN4C(=O)CC(SC[C@H](N)C(=O)N[C@H](C(=O)N[C@@H](CCCCN)C(=O)N[C@@H](CCCNC(=N)N)C(=O)NCC(=O)N[C@@H](CC(C)C)C(=O)N[C@@H](CCCCN)C(=O)N[C@@H](CC(C)C)C(=O)N[C@@H](CCCNC(=N)N)C(=O)N[C@@H](Cc5c[nH]cn5)C(=O)N[C@H](C(=O)N[C@@H](CCCNC(=N)N)C(=O)N5CCC[C@H]5C(=O)N[C@@H](CCCNC(=N)N)C(=O)N[C@H](C(=O)N[C@H](C(=O)N[C@@H](CCCNC(=N)N)C(=O)N[C@@H](CCSC)C(=O)N[C@@H](CC(=O)O)C(=O)N[C@H](C(=O)O)C(C)C)[C@@H](C)O)C(C)C)C(C)C)C(C)C)C4=O)cc13)-c1cc3c(c(=O)n1C2)COC(=O)[C@]3(O)CC (stereo partly shown) [DPV1047-MIC-SN38] (H-C(X1)VKRGLKLRHVRPRVTRMDV-OH)
MTD as mg equivalent of SN38 ([1]; beagle dog, i.v. infusion): 6.5-9.1 mg equivalent of SN38 | WBC depletion ([1]; dog, 70 mg/kg): 94% | signs of toxicity ([1]; dog, 70 mg/kg): gastro-intestinal toxicity, diarrhea and emesis | Reduction in WBC at D5 (%) ([1]; dog, i.v. infusion, 10 mg/kg): −44% | Toxic signs Day 1 ([1]; dog, i.v. infusion, 10 mg/kg): None | Toxic signs Following Days ([1]; dog, i.v. infusion, 10 mg/kg): None | Reduction in WBC at D5 (%) ([1]; dog, i.v. infusion, 20 mg/kg): −57% | Toxic signs Day 1 ([1]; dog, i.v. infusion, 20 mg/kg): None | Toxic signs Following Days ([1]; dog, i.v. infusion, 20 mg/kg): None | Reduction in WBC at D5 (%) ([1]; dog, i.v. infusion, 40 mg/kg): −69% | Toxic signs Day 1 ([1]; dog, i.v. infusion, 40 mg/kg): None | Toxic signs Following Days ([1]; dog, i.v. infusion, 40 mg/kg): None | Reduction in WBC at D5 (%) ([1]; dog, i.v. infusion, 50 mg/kg): −53% | Toxic signs Day 1 ([1]; dog, i.v. infusion, 50 mg/kg): None | Toxic signs Following Days ([1]; dog, i.v. infusion, 50 mg/kg): None | Reduction in WBC at D5 (%) ([1]; dog, i.v. infusion, 70 mg/kg): −94% | Toxic signs Day 1 ([1]; dog, i.v. infusion, 70 mg/kg): Vomit | Toxic signs Following Days ([1]; dog, i.v. infusion, 70 mg/kg): Liquid feces D4 | MTD ([1]; dog, in vivo, iv): 50 to 70 mg/kg | clinical signs ([1]; dogs, 10, 20, 40 and 50 mg/kg): no clinical signs | half-life ([2]; DPV1047-linker-SN38, 2.55 μM, citrated plasma, read-out: Half life time, Dog plasma): 36 min | SN38 Cmax and AUC versus dose of the conjugate [3]: increased linearly with the dose | half-life ([4]; DPV1047-linker-SN38, 2.55 μM, citrated plasma, read-out: Half life time, Human plasma): 6 to 7 min | half-life ([5]; time to 50% by mole free SN38 released, read-out: Half life time, Mouse plasma): < 3 min | half-life ([5]; monkey): 8 min | half-life ([5]; rat): 3 min

CCc1c2c(nc3ccc(OC(=O)[C@H]4CC[C@H](CNC(=O)C5CCC(CN6C(=O)CC(SC[C@H](N)C(=O)N[C@@H](CCCNC(=N)N)C(=O)N[C@@H](CCC(N)=O)C(=O)N[C@H](C(=O)N[C@@H](CCCCN)C(=O)N[C@H](C(=O)N[C@@H](Cc7c[nH]c8ccccc78)C(=O)N[C@@H](Cc7ccccc7)C(=O)N[C@@H](CCC(N)=O)C(=O)N[C@@H](CC(N)=O)C(=O)N[C@@H](CCCNC(=N)N)C(=O)N[C@@H](CCCNC(=N)N)C(=O)N[C@@H](CCSC)C(=O)N[C@@H](CCCCN)C(=O)N[C@@H](Cc7c[nH]c8ccccc78)C(=O)N[C@@H](CCCCN)C(=O)N[C@@H](CCCCN)C(=O)O)[C@@H](C)CC)[C@@H](C)CC)C6=O)CC5)CC4)cc13)-c1cc3c(c(=O)n1C2)COC(=O)[C@]3(O)CC (stereo partly shown) [Penetratin-linker #5-SN38]
pIC50 ([6]; 24 h): 7.24 | pIC50 ([7]; 24 h): 7.28 | half-life ([2]; Table 10, SN38 conjugates, read-out: Dog Plasma Half life time): 150 min | half-life ([4]; Table 10, SN38 conjugates, read-out: Human Plasma Half life time): 60 min

CCc1c2c(nc3ccc(O)cc13)-c1cc3c(c(=O)n1C2)COC(=O)[C@]3(O)CC [SN38, 7-ethyl-10-hydroxy-camptothecin, reference compound]
pIC50 ([6]; Table 11, 48-h continuous exposure, mean of three independent experiments, read-out: Drug concentration that inhibits 50% of cell viability (IC50), HCT 116): 8.15 | pIC50 ([7]; Table 11, 48-h continuous exposure, mean of three independent experiments, read-out: Drug concentration that inhibits 50% of cell viability (IC50), NCI-H460): 7.66 | solubility in water (Solubility in water): ≤ 5 µg/mL | fold more active than irinotecan as an anti-proliferative agent [8]: at least 2000 fold

CC[C@H](C)[C@H](NC(=O)[C@H](CCCCN)NC(=O)[C@@H](NC(=O)[C@H](CCC(N)=O)NC(=O)[C@H](CCCNC(=N)N)NC(=O)[C@@H](N)CSC1CC(=O)N(CCC(=O)Oc2ccc3nc4c(cc3c2)Cn2c-4cc3c(c2=O)COC(=O)[C@]3(O)CC)C1=O)[C@@H](C)CC)C(=O)N[C@@H](Cc1c[nH]c2ccccc12)C(=O)N[C@@H](Cc1ccccc1)C(=O)N[C@@H](CCC(N)=O)C(=O)N[C@@H](CC(N)=O)C(=O)N[C@@H](CCCNC(=N)N)C(=O)N[C@@H](CCCNC(=N)N)C(=O)N[C@@H](CCSC)C(=O)N[C@@H](CCCCN)C(=O)N[C@@H](Cc1c[nH]c2ccccc12)C(=O)N[C@@H](CCCCN)C(=O)N[C@@H](CCCCN)C(=O)O (stereo partly shown) [reference compound]
half life time (stability) in human serum [9]: less than three | half-life ([2]; Table 14, 10-Hydroxycamptothecin conjugates, read-out: Dog Plasma Half life time): 6 min | half-life ([4]; Table 14, 10-Hydroxycamptothecin conjugates, read-out: Human Plasma Half life time): < 3 min
